Drawing on PMC11189300 (2024), this text covers Kd and dG for four variants.

To fix the notation:
B1: KNL1 residues 2,026–2,342 [human] / Mis12 complex (Mis12C), full length: MIS12, PMF1, NSL1, DSN1 [human] (parent complex)
chain 1: SAQNEREKLQIKIDEMDKILKKIDNCLTEMETETKNLEDEEKNNPVEEWDSEMRAAEKELEQLKTEEEELQRNLLELEVQKEQTLAQIDFMQKQRNRTEELLDQLSLSEWDVVEWSDDQAVFTFVYDTIQLTITFEESVVGFPFLDKRYRKIVDVNFQSLLDEDQAPPSSLLVHKLIFQYVEEKESWKKTCTTQHQLPKMLEEFSLVVHHCRLLGEEIEYLKRWGPNYNLMNIDINNNELRLLFSSSAAFAKFEITLFLSAYYPSVPLPSTIQNHVGNTSQDDIATILSKVPLENNYLKNVVKQIYQDLFQDCHFYH
chain 2: MSVDPMTYEAQFFGFTPQTCMLRIYIAFQDYLFEVMQAVEQVILKKLDGIPDCDISPVQIRKCTEKFLCFMKGHFDNLFSKMEQLFLQLILRIPSNILLPEDKCKETPYSEEDFQHLQKEIEQLQEKYKTELCTKQALLAELEEQKIVQAKLKQTLTFFDELHNVGRDHGTSDFRESLVSLVQNSRKLQNIRDNVEKESKRLKIS
chain 3: MAEASSANLGSGCEEKRHEGSSSESVPPGTTISRVKLLDTMVDTFLQKLVAAGSYQRFTDCYKCFYQLQPAMTQQIYDKFIAQLQTSIREEISDIKEEGNLEAVLNALDKIVEEGKVRKEPAWRPSGIPEKDLHSVMAPYFLQQRDTLRRHVQKQEAENQQLADAVLAGRRQVEELQLQVQAQQQAWQALHREQRELVAVLREPE
chain 4: MAGSPELVVLDPPWDKELAAGTESQALVSATPREDFRVRCTSKRAVTEMLQLCGRFVQKLGDALPEEIREPALRDAQWTFESAVQENISINGQAWQEASDNCFMDSDIKVLEDQFDEIIVDIATKRKQYPRKILECVIKTIKAKQEILKQYHPVVHPLDLKYDPDPAPHMENLKCRGETVAKEISEAMKSLPALIEQGEGFSQVLRMQPVIHLQRIHQEVFSSCHRKPDAKPENFITQIETTPTETASRKTSDMVLKRKQTKDCPQRKWYPLRPKKINLDT
chain 5: MTSVTRSEIIDEKGPVMSKTHDHQLESSLSPVEVFAKTSASLEMNQGVSEERIHLGSSPKKGGNCDLSHQERLQSKSLHLSPQEQSASYQDRRQSWRRASMKETNRRKSLHPIHQGITELSRSISVDLAESKRLGCLLLSSFQFSIQKLEPFLRDTKGFSLESFRAKASSLSEELKHFADGLETDGTLQKCFEDSNGKASDFSLEASVAEMKEYITKFSLERQTWDQLLLHYQQEAKEILSRGSTEAKITEVKVEPMTYLGSSQNEVLNTKPDYQKILQNQSKVFDCMELVMDELQGSVKQLQAFMDESTQCFQKVSVQLGKRSMQQLDPSPARKLLKLQLQNPPAIHGSGSGSCQ

As a reminder, the Kd is the constant that tells how readily two partners part at equilibrium.

The variants in the first experiment derive from B1. In words: ITC; syringe KNL1^WT; cell Mis12C^M2; parent: 1.56 nM. Background: ITC needs no label: the signal is the heat of the interaction.
For the variant chain 3 MAEASSANLGSGCEEKRHEGSSSESVPPGTTISRVKLLDTMVDTFLQKLVAAGSYQRFTDCYKCFYQLQPAMTQQIYDKFIAQLQTSIREEISDIKEEGNLEAVLNALDKIVEEGKVRKEPAWRPSGIPEKDLHSVMAPYFLQQRDTLRRHVQKQEAENQQLADAVLAGRRQVEELQLQVQAQQQAWQALHREQEELLAVLREPE chain 5 MTSVTRSEIIDEKGPVMSKTHDHQLESSLSPVEVFAKTSASLEMNQGVSEERIHLGSSPKKGGNCDLSHQERLQSKSLHLSPQEQSASYQDRRQSWRRASMKETNRRKSLHPIHQGITELSRSISVDLAESKRLGCLLLSSFQFSIQKLEPFLRDTKGFSLESFRAKASSLSEELKHFADGLETDGTLQKCFEDSNGKASDFSLEASVAEMKEYITKFSLERQTWDQLLLHYQQEAKEILSRGSTEAKITEVKVEPMTYLGSSQNEVLNTKPDYQKILQNQSKVFDCMEFVMDELQGSVKQLQAFMDESTQCFQKVSVQLGKRSMQQLDPSPARKLLKLQLQNPPAIHGSGSGSCQ [chain 3 R195E, chain 3 V198L, chain 5 L290F], the Kd was found to be 24.8 nM.

In the next experiment the parent is B1. In words: ITC; syringe KNL1^WT; cell Mis12C^M1; parent: -12.
With chain 3 MAEASSANLGSGCEEKRHEGSSSESVPPGTTISRVKLLDTMVDTFLQKLVAAGSYQRFTDCYKCFYQLQPAMTQQIYDKFIAQLQTSIREEISDIKEEGNLEAVLNALDKIVEEGKVRKEPAWRPSGIPEKDLHSVMAPYFLQQRDTLRRHVQKQEAENQQLADAVLAGRRQVEELQLQVQAQQQAWQALHREQAELLAVLREPE chain 5 MTSVTRSEIIDEKGPVMSKTHDHQLESSLSPVEVFAKTSASLEMNQGVSEERIHLGSSPKKGGNCDLSHQERLQSKSLHLSPQEQSASYQDRRQSWRRASMKETNRRKSLHPIHQGITELSRSISVDLAESKRLGCLLLSSFQFSIQKLEPFLRDTKGFSLESFRAKASSLSEELKHFADGLETDGTLQKCFEDSNGKASDFSLEASVAEMKEYITKFSLERQTWDQLLLHYQQEAKEILSRGSTEAKITEVKVEPMTYLGSSQNEVLNTKPDYQKILQNQSKVFDCMEFVMDELQGSVKQLQAFMDESTQCFQKVSVQLGKRSMQQLDPSPARKLLKLQLQNPPAIHGSGSGSCQ [chain 3 R195A, chain 3 V198L, chain 5 L290F], the dG is -10.

A further experiment covers variants of B1. In words: ITC; syringe KNL1^M2; cell Mis12C^WT; parent: 1.56 nM.
For chain 1 SAQNEREKLQIKIDEMDKILKKIDNCLTEMETETKNLEDEEKNNPVEEWDSEMRAAEKELEQLKTEEEELQRNLLELEVQKEQTLAQIDFMQKQRNRTEELLDQLSLSEWDVVEWSDDQAVFTFVYDTIQLTITFEESVVGFPFLDKRYRKIVDVNFQSLLDEDQAPPSSLLVHKLIFQYVEEKESWKKTCTTQHQLPKMLEEFSLVVHHCRLLGEEIEYLKRWGPNYNLANIDINNNELRLLFSSWAAAAEFEITLFLSAYYPSVPLPSTIQNHVGNTSQDDIATILSKVPLENNYLKNVVKQIYQDLFQDCHFYH [chain 1 M231A, chain 1 S247W, chain 1 F250A, chain 1 K252E], the Kd is 109 nM.

Variants of B1 are the subject of the next experiment. In words: ITC; syringe KNL1^M1; cell Mis12C^WT; parent: 1.56 nM.
For chain 1 SAQNEREKLQIKIDEMDKILKKIDNCLTEMETETKNLEDEEKNNPVEEWDSEMRAAEKELEQLKTEEEELQRNLLELEVQKEQTLAQIDFMQKQRNRTEELLDQLSLSEWDVVEWSDDQAVFTFVYDTIQLTITFEESVVGFPFLDKRYRKIVDVNFQSLLDEDQAPPSSLLVHKLIFQYVEEKESWKKTCTTQHQLPKMLEEFSLVVHHCRLLGEEIEYLKRWGPNYNLANIDINNNELRLLFSSWAAAAAFEITLFLSAYYPSVPLPSTIQNHVGNTSQDDIATILSKVPLENNYLKNVVKQIYQDLFQDCHFYH [chain 1 M231A, chain 1 S247W, chain 1 F250A, chain 1 K252A], the Kd amounted to 140 nM.
